How the values were obtained:
ScNAGK = target: T1, ScNAGK (Synechocystis sp., UniProt P73326); assay: Coupled NAGK activity assay, ScNAGK; assay type: biochemical, Synechocystis sp. PCC 6803
T1 sequence (P73326 1-297): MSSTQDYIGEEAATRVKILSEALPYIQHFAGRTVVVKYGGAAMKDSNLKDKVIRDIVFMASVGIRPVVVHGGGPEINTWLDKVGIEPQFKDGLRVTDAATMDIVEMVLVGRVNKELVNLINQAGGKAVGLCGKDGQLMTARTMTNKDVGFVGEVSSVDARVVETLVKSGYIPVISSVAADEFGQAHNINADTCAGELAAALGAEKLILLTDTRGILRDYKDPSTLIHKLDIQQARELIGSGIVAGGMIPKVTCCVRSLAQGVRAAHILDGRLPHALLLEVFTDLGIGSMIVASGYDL
Experimental: The assess the activity of ScNAGK was measured with an enzyme assay, in which the ADP production was coupled to the NADH oxidation by the auxiliary enzymes pyruvate kinase and lactate dehydrogenase according to previously described procedure[32],[50]. […] The oxidation reaction of NADH was recorded for 10 min using spectrophotometer (SPECORD 210 PLUS, Analytik Jena AG) at 340 nm. […] The NADH molar absorption coefficient is 6178 L mol^−1 cm^−1 for at 340 nm, which was used for calculation. […] From the velocity slopes, the enzymatic constants Km, Kcat and IC50 were calculated using the Graph-Pad Prism software (GraphPad Software, USA).

PipX = assay: Pull-down analysis of PipX binding to PII proteins; parameters: species or system Synechocystis sp. PCC 6803; conditions: 10 µM proteins, 1 mM ADP, Strep-Tactin column, Tricine-SDS-PAGE
Excerpt: In cyanobacteria, PipX is the second known receptor of PII signaling. We questioned whether red algal PII proteins have lost or retained the ability to bind to PipX. To test this possibility, we first analyzed complex formation using pull-down experiments (Supplementary Fig. S3A and B). The PII protein from Synechocystis sp. PCC 6803 (ScPII) was mixed with PipX in the presence of ADP and then the Strep-tagged PII was immobilized on the Strep-Tactin II column (Supplementary Fig. S3A). After extensive washes, the proteins were eluted with desthiobiotin and analyzed by Tricine-SDS-PAGE. Both proteins were detected in the elution. Thus, confirming previous studies[16]–[18], cyanobacterial PII was bound to PipX. When PpPII in the presence of PipX was immobilized on the column, no PipX signal was detected in the elution (Supplementary Fig. S3B).
For complex formation, the binding reactions were done in 300 μl of buffer (100 mM Tris HCl, pH 8.0, 150 mM NaCl, 1 mM EDTA) by adding 10 µM of purified proteins: His6-ScPipX and Strep-tag ScPII or Strep-tag PpPII. […] The eluted fractions were analyzed by Tricine-SDS PAGE[51] and stained with SimplyBlue™ SafeStain (Invitrogen).
(§1) Figure S3. […] Complex formation between PipX and ScPII (A) or PpPII (B) was assessed by pull-down. […] (C) Complex formation between PipX and PII proteins was assessed by SPR. […]

ScPipX = assay: SPR analysis of PipX binding to PII proteins; parameters: species or system Synechocystis sp. PCC 6803; conditions: His-tagged ScPipX immobilized, 200 nM PII protein, ADP
Experimental: Additionally, we assessed whether PpPII could bind to PipX by surface plasmon resonance (SPR) spectroscopy (Supplementary Fig. S3C). The N-terminally His-tagged ScPipX was immobilized on a Ni-HTG sensor chip and probed with ScPII together with effector molecule ADP. Interaction between PpPII and PipX was not observed.
SPR experiments were conducted using a ProteOn XPR36 system (Bio-Rad) in HBS buffer (10 mM HEPES, 150 mM NaCl, 1 mM MgCl2, and 0.005% Tween 20, pH 7.5) at 25 °C. Immobilization of ligand, 1 µM His6-PipX (200 µl), was performed on a Ni^+-loaded HTG sensor chip (Bio-Rad Laboratories) in the vertical orientation into the channel L2, and the continuous running buffer was used at a flow rate of 30 µl/min. The immobilization level was approximately 3000 resonance units (RU). […] The binding of PII proteins to PipX was recorded as a response signal difference of L2 and L1. All binding sensorgrams were collected, processed and analyzed using the integrated ProteOn Manager software (Bio-Rad Laboratories).
as §1

B1: PpPII: PII from the red alga Porphyra purpurea, recombinant Strep-tagged or His-tagged protein (protein)
chain: MKKIEAIIRPFKLNEVKLALVKGGIGGMTVVKVSGFGRQKGQTERYKGSEYSIDIIDKIKIEIIVSDDKVNSITEIIIKTAKTGEIGDGKIFISDVEQVIRIRTNDLNSAAL
modifications: left off: Strep-tag II, C-terminal, kept
notes: PII from the red alga Porphyra purpurea, recombinant Strep-tagged or His-tagged protein
ScNAGK; 50 mM NAG, 10 mM ATP, without glutamine
  raise of the IC50 for arginine on addition of PpPII to ScNAGK: approximately 4 fold
ScNAGK; PpPII-complexed versus free ScNAGK
  increase of the overall NAGK catalytic efficiency by complex formation with PpPII: about 4 fold
PipX
  complex formation with PipX (pull-down): did not interact with PipX
ScPipX
  interaction with PipX (SPR): not observed

— publication PMC5768801, “The PII signaling protein from red algae represents an evolutionary link between cyanobacterial and Chloroplastida PII proteins” (Scientific Reports, 2018)
